The text below walks through data of the nanobody polyreactivity screen of Harvey et al. (2022).

The nature of the data set: yeast display, Sf9 membrane polyspecificity reagent, FACS + sequencing; frameworks hold sequencing errors. A digest of the protocol: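 Polyreactivity labels are assigned by the sorting gate from which each nanobody was recovered. The gates were low and high (top ~1%), set on anti-HA fluorescence for expression and streptavidin fluorescence for reagent binding. Before sorting, galactose-induced (36–48 hours) yeast display cells were stained for 1 hour at 4 °C with 10% biotinylated, detergent-solubilized Sf9 membrane reagent.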
“QGQLVESGGGLVQAGGSLRLSCAASGRIFVANAMGWYRQAPGKERELVAAISGRGSRTYYADSVKGRFTISRDNAKKTVYIQMNSLKPEETAVYSCAARYRYDGRYDYWGPGTQVTVSS”: the “polyreactivity (PSR sort gate)” value is listed as “high polyreactivity”.

For the sequence “QVQLVESGGGLVQAGGSLRLSCAASGSTFLSNAMGWYRPAPGKERELVAAITTSGTSTFDADSVKGRFTISRDNAKTTVYLQMNSLKPEDTAVYCAKDYLPYLHFVAPSTGDYDYWGQGTQVTVSS”, the “polyreactivity (PSR sort gate)” value was “low polyreactivity”.

For the sequence “QVQLVESGGGLVQAGGSLRLSCAASGSTYRLYTMGWYRQAPGKERELVAAITSGGSTNYADSVKGRFTISRDNAKNTVYLQMYSLKPEDTAVYYCAKAKRFPSFDYWGQGTQVTVSS”, the “polyreactivity (PSR sort gate)” value is “low polyreactivity”.

On to “QVQLVESGGGLVQAGGSLRLSCAASGSIFYRNAMGWYRQAPGKERELVAVITRRGGRTYYADSVKGRFTISRDNAKNTVDLQMNSLKPEDTAVYYCNADTANYADGLDYWGQGTQVTVSS”, for which the “polyreactivity (PSR sort gate)” value is on record as “low polyreactivity”.

For the sequence “QVQLVESVGGLVQAGGRLRLSSAASGFTFAFHAMGSYRQAPGKERELVAAISCSGVSTYYADSVKWRFTLSRDNEKNTDYLQMNSLKPEDTAVKYCAVGAVASSHRAGGKRHEYWGQGTQVTLSS”, the “polyreactivity (PSR sort gate)” value is “low polyreactivity”.

As to “QVQIVESGGRIVQAGGSIRLSCAASGSTFLFYAMGRSRQAPGKERQLVAAISYSGGSTFYADSVKGRFTISRDNAKNTVYLQMNSLKPEDTAVYYCAAESYSYGFTHEYWGQGTQETVSS”, the “polyreactivity (PSR sort gate)” value is given as “high polyreactivity”.

Turning to “QVQLVESGGGLVQAGGSLRLSCAASGFIFHVYAMGWYRQAPGKERELVARITSSGGNTFYADSVKGRFTISRDNAKNTVYLQMNSLKPEDTAVYYCAKSSIYTDYDYWGQGSQVTVSS”, the “polyreactivity (PSR sort gate)” value is “low polyreactivity”.

Turning to “QVQLVESGGGLVQAGGSLRLTCAASGFIFTYYAMGWYRQAPGKERELVAAISSSGGRTAYADSVKGRYTISRDNAKNTVYLQMNSLKPEDTAVYYCAARIRASGGKDGYNSWGQGTQVTVSS”, the “polyreactivity (PSR sort gate)” value is listed as “high polyreactivity”.

For “QVQLVESGGGLVQAGGSLRLSCAASGSTFVYNTMGWYTQAPGKERELVAGIDWSGGRTFYADSVKGRFTISRDNAKNTVYLQMNSLKPEDTAVYYCAKRLRVYRPWTYNYWGQGTQVTVSS”, the “polyreactivity (PSR sort gate)” value is given as “high polyreactivity”.

Consider “QVQLVESGGGLVQAGGSLRLSCAASGSTFDGNAMGWYRQAPGKERELVAAITRAGRTSYADSVKGRFTISRDNAKNTVYLQMNSLKPEDTAVYYCAKGGYDYWGQGTQVTVSS”, for which the “polyreactivity (PSR sort gate)” value is given as “low polyreactivity”.

Regarding “QVQLVESGGGLVQAGGSLRLSCAASGRIFVPYTMGWYRQAPGKEWELVAAISRSGGSTYYADSVKGRFTISRDNAKNTVYLQMNSLKPEDTAVYYCAARATNVYSKMDSWGQGTQVTVSS”, the “polyreactivity (PSR sort gate)” value was “high polyreactivity”.

Turning to “QVQLVESCGGLVQAGGSLRLSCAASGITFYGYAMGWYIQAPGKERELVARITISGRTNYADYVKGRFTISRDNAKNTVYLQMNSLKPEDTAVYYCATLVHWSYPYYYWGQGTQVTVSS”, the “polyreactivity (PSR sort gate)” value is “high polyreactivity”.

On to “QVQLVESGGGLVQAGGSLRLSCAASGITFGVNTMGWYRQAPGKERELVAAITWRGGSTYYADSVKGRFTISRDNAKNTVYLQMNSLKPEDTAVYYCAAVDFTREISGVTYGFDYCGQGTQVTVSS”, for which the “polyreactivity (PSR sort gate)” value was “low polyreactivity”.

For “QVQLVESGGGLVQAGGSLRLSCAASGRTFTGYTKGWYRQAPGKEREFVAAISSNGGRTYYADSVKGRFTISRDNAKNTVYLQMNSLKPEDTAVYYCAARYTFWGQGTQVTVSS”, the “polyreactivity (PSR sort gate)” value is “high polyreactivity”.

Turning to “QVQLVESGGGLVQAGGSLRLSCAASGFIFTVNAMGRYRQAPGKERELVAAITQSGGNRSYADSVKGRFTISSDKAKNTVYLQMNSLKPEDTAVYYCNASSDTSRYGVSTYYYWGQGTQVTVSS”, the “polyreactivity (PSR sort gate)” value was “low polyreactivity”.

On to “QVQLVESGGGLVQAGGSLRLSCAASGFTFKYYAMGWYRPAPGKERELVAAIRRSAGSTNYADSVKGRFTISRDNAKNTVYLQMNSLKPEDTAVYYCNTVGTRQPMDYWGQGTQVTVSS”, for which the “polyreactivity (PSR sort gate)” value was “high polyreactivity”.

Consider “QVQLVESGGGLVQAGGSLRLSCAASGRIFRYNAMGWYRQAPGKERELVAAISSVGSTNYADSVKGRFTISRDNAKNTVYLQMNSLKPEDTAVYYCNAVVRSYVKTYRYYKVDYWGQGTQVTVSS”, for which the “polyreactivity (PSR sort gate)” value is listed as “high polyreactivity”.

For the sequence “QVQLVESGGGLVQAGGSLRLSCAASGSIFDSYAMGWYRQAPGKERELVATINTSGGSTYYADSVKGRFTIHDNAKNTVYLQMNSLKPEDTAVYYCAVVVHYSTIGGGYRPRMYYWGQGTQVTVSS”, the “polyreactivity (PSR sort gate)” value is listed as “low polyreactivity”.

On to “QVQLVESGGGLVQAGGSLRLSCAASGLTFYPYAMGWSRQAPGKERELVAAINWSGTTTYYADSVKGRFTISRDNAKNTVYLQMNSLKPEDTAVYYCNADVYYEPTTGYYLWDYDYWGQGTQVTVSS”, for which the “polyreactivity (PSR sort gate)” value was “low polyreactivity”.

As for “QVQLVESGGGLVQAGGSLRLSCAASGSTFYPYAMGWYRQAPGKEREFVAGISRSGGTTYYADSVKGRFTISRDNAKNTVYLQMNSLKPEDTAVYYCAVQIPYVYWSYDYWGQGTQVTVSS”, the “polyreactivity (PSR sort gate)” value was “low polyreactivity”.

As to “QVQLVESGGGLVQAGGSLRLSCAASGLIFTTNAMGSYRQAPGKEREFVAAISPSGGSTYYADSVKGRFTISRDNAKNTVYLQMNRLKPEDTAVYYCAARYSPVWHKYYYWGQGTQVTVSS”, the “polyreactivity (PSR sort gate)” value is listed as “high polyreactivity”.

Take “QVQLVESGGGLVQAGGSLRLSCAASGSTFAANAMGWYRQAPGKERELVAAITSSGGSTYYADSVKGRFTISRDNAKNTVYLQMNSLKPEDTAVYYRNKDIERYVRIYDSWGQGTQVTVSS”: the “polyreactivity (PSR sort gate)” value was “low polyreactivity”.

As to “QLQLVESGGGLVQAGGRLRLSCAASGITYFTYDMGWYRQAPGKERELVAAISGSGGSTYYADSVKGRFTISRDNAKNSFYLQMTSLKPEDTAVYYCAAEYTYGSPYDYWGQGTQVTVSS”, the “polyreactivity (PSR sort gate)” value is “low polyreactivity”.

Take “QVQLVESGGGLVQAGGSLRLSCAASGMTFAENAMGWYREAPGKERELVAANSASGGSTYYADSVKGRFTISRDNAKNTVYLQMNSLKPEDTAVFYCATRVAFLWPRRDYDYWGQGTQVTVSS”: the “polyreactivity (PSR sort gate)” value is given as “low polyreactivity”.

Consider “QVQLVESGGGLVQAGGSLRLSCAASGSIFSGYTMGWYRQAPGKERELVAGISYRGGSTYYADSVKGRFTISRDNAKNTVYLQMNSLKPEDTAVYYCAARHSTLRGYWGQGTQVTVSS”, for which the “polyreactivity (PSR sort gate)” value is recorded as “high polyreactivity”.

Turning to “QVQLVETGGGLVQAGGSLRLRCAPSGSTFSEYAMGWYRQAPGKERELVPAITSGGITNYADSVKGRFTISRDNSKNTVYFKMNSLKPEDTAVYYCNTQDVYGDPVESLVDYDYWGQGTQVTVSS”, the “polyreactivity (PSR sort gate)” value is “high polyreactivity”.

Turning to “QVQLVESGGGLVQAGGSLRLSCAASGLTYANAKGWYRQAPGKERELVATIRYSGGSTYYADSVKGRFTISRDNAKNTVYLQMNSLKPEDTAVYYCAARRTAGYRSGEYDYWGQGTQVTVSS”, the “polyreactivity (PSR sort gate)” value is on record as “high polyreactivity”.

Regarding “QVQLVESGGGLVQAGGSLRLSCAASGLILSDYAMGWYRQAPGKERELVATITSVGTTKYADSVKGRVTISRDNAKKTVYVQLHSLKPEDTAVYYCAAEFIRGYGESYDYWGQGTQVTVSS”, the “polyreactivity (PSR sort gate)” value is recorded as “low polyreactivity”.

Regarding “QVQLVESGGGLVQAGGSLRLSCAASGITFSNYAMGWYRQAPGKERELVAAITLSGGRTYYADSVKGRFTISRDNAKNTVYLQMNSLKPEDTAVYYCAAGRTRRPLGGTTKYYYWGQGTQVTVSS”, the “polyreactivity (PSR sort gate)” value is “high polyreactivity”.

In the case of “HVQLVESGGGLVQAGASLRLSCAASGRIFGRNAMGWYRQAPGKERELVAAISGNGGSTYYADSVKGRFTISRDIAKNTVYLQMNSLKPEDTAGYYCATKYFSRMDYWGQGTQVTVSS”, the “polyreactivity (PSR sort gate)” value is “high polyreactivity”.
